Source: US20160058829A1, “ANTI-FIBROTIC PEPTIDES AND THEIR USE IN METHODS FOR TREATING DISEASES AND DISORDERS CHARACTERIZED BY FIBROSIS” (Thrasos Innovation, Inc., priority 2011, published 2016)
“Also recorded” adds a separate entry of the source. Where two headings read alike, the source gives them in different places. Positions of bridges follow the written chain, without caps; N, C: chain ends.

T1: ALK2 (Homo sapiens, UniProt Q04771)
T1 sequence (Q04771 21-123 limits assumed): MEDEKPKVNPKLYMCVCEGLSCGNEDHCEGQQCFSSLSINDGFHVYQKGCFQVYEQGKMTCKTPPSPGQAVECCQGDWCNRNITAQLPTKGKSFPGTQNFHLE

T2: BMPR-II (Homo sapiens, UniProt Q13873)
T2 sequence (Q13873 27-1038): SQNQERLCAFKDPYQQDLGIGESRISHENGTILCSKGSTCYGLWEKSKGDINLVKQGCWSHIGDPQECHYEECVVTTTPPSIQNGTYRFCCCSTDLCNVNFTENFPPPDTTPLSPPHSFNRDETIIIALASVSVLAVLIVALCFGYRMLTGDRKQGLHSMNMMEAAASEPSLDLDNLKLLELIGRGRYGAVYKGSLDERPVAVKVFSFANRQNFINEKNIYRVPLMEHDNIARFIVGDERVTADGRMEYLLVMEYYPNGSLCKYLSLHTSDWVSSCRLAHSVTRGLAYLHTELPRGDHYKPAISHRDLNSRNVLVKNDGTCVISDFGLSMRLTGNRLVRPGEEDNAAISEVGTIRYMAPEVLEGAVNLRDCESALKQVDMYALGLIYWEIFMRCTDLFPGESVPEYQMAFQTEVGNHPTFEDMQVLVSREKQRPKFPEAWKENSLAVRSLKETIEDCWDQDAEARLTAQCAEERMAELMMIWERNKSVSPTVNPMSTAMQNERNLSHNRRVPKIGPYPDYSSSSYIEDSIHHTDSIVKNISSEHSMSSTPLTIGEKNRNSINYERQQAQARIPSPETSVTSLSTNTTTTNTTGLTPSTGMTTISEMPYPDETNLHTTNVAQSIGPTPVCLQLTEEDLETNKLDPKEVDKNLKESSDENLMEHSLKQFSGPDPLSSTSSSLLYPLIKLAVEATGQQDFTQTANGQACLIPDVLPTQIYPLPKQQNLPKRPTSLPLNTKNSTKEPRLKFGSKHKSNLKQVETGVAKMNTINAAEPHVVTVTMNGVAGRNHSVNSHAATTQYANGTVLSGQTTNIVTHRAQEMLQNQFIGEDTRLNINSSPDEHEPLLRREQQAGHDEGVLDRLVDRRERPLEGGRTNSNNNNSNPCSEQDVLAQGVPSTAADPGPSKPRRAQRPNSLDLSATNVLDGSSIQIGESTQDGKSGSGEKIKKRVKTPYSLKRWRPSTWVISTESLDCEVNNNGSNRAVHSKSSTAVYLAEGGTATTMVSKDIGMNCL

B1: BMP-7: bone morphogenetic protein-7; recombinant human BMP7, positive control (protein)
chain: STGSKQRSQNRSKTPKNQEALRMANVAENSSSDQRQACKKHELYVSFRDLGWQDWIIAPEGYAAYYCEGECAFPLNSYMNATNHAIVQTLVHFINPETVPKPCCAPTQLNAISVLYFDDSSNVILKKYRNMVVRACGCH

How the values were obtained:
ALK2 = biological target: T1, ALK2; assay: BMP type I receptor binding, ALK2 ECD
Procedure: (§1) FIG. 31 provides a table indicating a comparison between THR-123 (SEQ ID NO: 1) and BMP-7 for binding to Type I and Type II BMP receptors. Like BMP-7, THR-123 binds to both ALK2 and ALK3 (type I) and BMPR-II (type II) BMP receptors. However, BMP-7, but not THR-123 binds to ALK6 (type I) receptor.
First, specific affinity of the extra cellular domains (ECD) of the several type I receptors of BMPs to THR-123 was analyzed. Binding of cold BMP7 to immobilized receptor ECDs was determined by competition with ^125I-labeled BMP7 and analyzed by Scatchard analysis to determine effective dissociation constants of BMP7 for each of the receptor ECDs. To obtain an estimate of the effective dissociation constant of THR-123 for a particular receptor ECD, the dissociation constant for cold BMP7 was multiplied by the ratio of the ED50 of THR-123 to the ED50 for cold BMP7.

BMPR-II = biological target: T2, BMPR-II; assay: BMP type II receptor binding
Description: as §1

UUO animals = assay: Unilateral ureteral obstruction (UUO), FIG. 33-34; assay type: in vivo; conditions: for hydroxyproline content (total collagen) of UUO kidneys: 3-fold increase in vehicle-treated UUO kidneys; for expansion of the interstitial space: UUO animals showed 3 fold expansion
Description: In the animals given BMP-7 or […] Hydroxyproline content, a measure of total collagen, increased 3-fold in the vehicle-treated UUO kidneys compared with sham-operated kidneys. […]

HK-2 cells = assay: TNF-α-induced inflammatory cytokine production in HK-2 cells (ELISA); assay type: cell-based, human; conditions: HK-2 cells
Procedure: FIG. 37 provides a bar graph showing a comparison of the effects of THR-123 (or “THR-1405”) and the specific inhibitor SB 203580 on the level of TNF-α-induced IL-6 production, an inflammatory marker, in human renal tubule epithelial cells (HK-2).
FIG. 47A-FIG. 47C Anti-inflammatory activity of THR-123. PTEC-derived HK-2 (HK-2) cells were culture on 24-well plate (30,000 cells/well). Cells are exposed to K-SFM medium alone or TNF-α (5 ng/ml). Twenty hours after TNF-α incubation, cells are washed twice by pre-warmed culture media and subsequently cells are incubated with various concentration of THR-123 or BMP7 for 60 hours. At the end of incubation, culture medias are harvested and ELISA analysis are performed. FIG. 47A: IL-6, FIG. 47B: IL-8 and FIG. 47C: ICAM-1 results are shown. Analyze are performed in triplicates and data are shown as mean±s.e.m. in the graph.
Preliminary screening for optimization was based on anti-inflammatory efficacy in an in vitro cell-based assay using a human renal tubular epithelial cell line (HK-2). The assay tested the ability of compounds to reverse the increase in production of cytokine IL-6 that resulted from stimulation of the cells with tumor necrosis factor (TNF)-α. Sequence-activity analysis was carried out using the SVA program. After six optimization cycles, THR-123 (FIG. 2A) emerged as the lead compound, which was further evaluated in other relevant anti-fibrosis assays (vide infra).
Human proximal tubular epithelial cells-derived HK-2 cells were culture on 24-well plate (30,000 cells/well). Cells are exposed to K-SFM medium alone or […] (5 ng/ml). Twenty hours after TNF-α incubation, cells are washed twice by pre-warmed culture media and subsequently cells are incubated with various concentration of THR-123 or BMP7 for 60 hours. At the end of incubation, culture medias are harvested and ELISA analysis for IL-6, IL-8 and ICAM-1 are performed.

NP-1 cells [1] = assay: TGF-β-induced apoptosis in NP-1 cells (Annexin V); assay type: cell-based; conditions: TGF-β 3 ng/ml 24 h; BMP-7 1 μg/ml, THR-123 10 μM
Procedure: FIG. 48A-FIG. 48D THR-123 inhibits TGF-β-induced apoptosis in NP-1 cells. NP-1 cells are incubated with TGF-β (3 ng/ml) for 24 h in the presence of indicated molecules. Apoptosis was analyzed by Annexin V labeling (Roche). Representative merged picture (Green: Annexin V and bright field image) of cells treated with TGF-β only (FIG. 48A), TGF-β+BMP-7 (1 μg/ml) (FIG. 48B), TGF-β+THR-123 (10 μM) (FIG. 48C) and TGF-β+ctrl peptide (FIG. 48D).

NP-1 cells [2] = assay: TGF-β-induced EMT in NP-1 cells (inhibition and reversal); assay type: cell-based; conditions: added after EMT induction for additional 48 hrs; BMP 7 1 μg/ml, THR-123 10 μM

Row | binding to ALK2 (ALK2) | Molecule | binding to ALK2 (ALK2; listed as THR-123) | binding to BMPR-II (BMPR-II) | hydroxyproline content (total collagen) of UUO kidneys (UUO animals) | expansion of the interstitial space (UUO animals) | TNF-α-induced ICAM-1 production (HK-2 cells) | TNF-α-induced IL-8 production (HK-2 cells) | TNF-α-induced IL-6 production (HK-2 cells; listed as THR-123) | TGF-β-induced apoptosis (NP-1 cells [1]) | reversal of EMT morphology (NP-1 cells [2]) | TNF-α-induced IL-6 production (HK-2 cells)
1 |  | (H)-CYFDDSSNVLCKKYRS-(OH) (H-CYFDDSSNVLCKKYRS-OH; disulfide 1-11; SMILES CC(C)C[C@@H]1NC(=O)[C@H](C(C)C)NC(=O)[C@H](CC(N)=O)NC(=O)[C@H](CO)NC(=O)[C@H](CO)NC(=O)[C@H](CC(=O)O)NC(=O)[C@H](CC(=O)O)NC(=O)[C@H](Cc2ccccc2)NC(=O)[C@H](Cc2ccc(O)cc2)NC(=O)[C@@H](N)CSSC[C@@H](C(=O)N[C@@H](CCCCN)C(=O)N[C@@H](CCCCN)C(=O)N[C@@H](Cc2ccc(O)cc2)C(=O)N[C@@H](CCCNC(=N)N)C(=O)N[C@@H](CO)C(=O)O)NC1=O) [SEQ ID NO: 1] | to a small extent; also recorded: binds | binds | effectively decreased | significantly reduced | inhibits | inhibits | inhibited TNF-α induced IL-6 production in dose dependent manner; also recorded: significantly reduced | decreased apoptosis | reversal of the morphology | 
2 | binds | B1 |  | binds | effectively decreased | significantly reduced |  |  |  | decreased apoptosis | reversal of the morphology | inhibited TNF-α induced IL-6 production in dose dependent manner
